According to PMC4932183:

Columns and labels:
[1] = target: T1, pro-domain of activin A, N-terminal His6-tagged, released from engineered pro-activin A by HRV 3C protease (human); test: BLI; His6-tagged pro-activin A complex immobilised through the pro-domain on anti-penta-HIS biosensors, dipped into buffer containing 100 nM FST-288 for 600 s; dissociation of the mature domain; 30 °C
T1 sequence (P08476 whole entry, looked up): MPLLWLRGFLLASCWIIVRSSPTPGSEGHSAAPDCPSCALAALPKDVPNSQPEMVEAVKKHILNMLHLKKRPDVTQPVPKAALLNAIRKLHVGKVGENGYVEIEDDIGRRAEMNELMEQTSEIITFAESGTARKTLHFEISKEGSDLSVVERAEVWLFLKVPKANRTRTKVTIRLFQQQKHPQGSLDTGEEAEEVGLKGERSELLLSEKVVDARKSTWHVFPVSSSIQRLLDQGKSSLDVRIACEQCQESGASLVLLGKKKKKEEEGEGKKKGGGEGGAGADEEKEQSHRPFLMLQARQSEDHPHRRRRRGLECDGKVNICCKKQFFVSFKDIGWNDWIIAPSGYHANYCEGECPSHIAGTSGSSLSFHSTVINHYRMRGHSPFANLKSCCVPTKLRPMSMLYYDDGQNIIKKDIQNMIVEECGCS

[2] = target: T1, pro-domain of activin A, N-terminal His6-tagged, released from engineered pro-activin A by HRV 3C protease (human); test: BLI; His6-tagged pro-activin A complex immobilised through the pro-domain on anti-penta-HIS biosensors, dipped into blank buffer for 600 s; dissociation of the mature domain; 30 °C
[3] = target: T1, pro-domain of activin A, N-terminal His6-tagged, released from engineered pro-activin A by HRV 3C protease (human); test: BLI; reverse phase purified His6-tagged pro-domain immobilised at 25 μg/ml on anti-penta-HIS biosensors; mature activin A in solution; 300 s association, 300 s dissociation; Octet RED96, 30 °C
[4] = target: T1, pro-domain of activin A, N-terminal His6-tagged, released from engineered pro-activin A by HRV 3C protease (human); test: BLI; pro-activin A complex immobilised at 50 μg/ml on anti-penta-HIS biosensors, mature domain removed with 16 μM FST-288, then mature activin A in solution; 600 s association, 600 s dissociation; 30 °C

B1: mature activin A (disulfide-linked dimer of the mature domain of inhibin βA) (ligand)
chain: GLECDGKVNICCKKQFFVSFKDIGWNDWIIAPSGYHANYCEGECPSHIAGTSGSSLSFHSTVINHYRMRGHSPFANLKSCCVPTKLRPMSMLYYDDGQNIIKKDIQNMIVEECGCS
A dissociation rate with 100 nM FST-288 [1] of 0.00445 s⁻¹, a koff [2] of 0.00299 s⁻¹ and a Kd [3] of 5 nM were found for B1 in this work. It also gave a Kd [4] of 2.3 nM.
